{"source": "the DeepSol protein solubility set"}
{"assay": "soluble on expression in E. coli; label from the status in PepcDB or PDB records"}
{"sequence": "MGHHHHHHSHMQTFQLDTERLCQAAKLYQHTKSDFGLNGMIQLSGSCNNMSLSVLGSIGGCAILRLELLEAARLHSSKDSSKSAIYSFRNASSLGREFTHGGELFGPKMESASLSFYGHHGVKYVEAQFVHDSSSKTVHTAAMQPITIPPSCAFDDREANGIVTLSTKTAAALVKWLKQHTKTCQSPVKVSISEILGVMVLSVGDASMTVDVTPVNVSSGKKTRGGNKASDSGTISADATVHVNGHCLIRSLIVCKVPGCTTPRVKFHACGILEVDGAPVKQGELTQVKLSVALLNVDSSTGRVLKEPVVTGASKDRGASKSEDADGSPPVPDHPKESLTSDSDSSVPGPRSTDLSSLTHTPSDRFSSDLRSGCGGQQFLKRPPPKKDREPTTKRPKLHFNHFP", "soluble on expression in E. coli": "soluble"}
{"sequence": "MGHHHHHHSHMRKNESYLNQPAPPIPIPTLSLMGGCREHFENHWKGRARWLMPVIPALWEAKAGRSPEVRSSKPAWPTWRNPIFTKNTKISQVLELFLNYQSLICALEKQKRQKGSLAIFCWSFQGGCVSKRPDVPSLKSQKPKRKRITGRKRLSKGFWSLLFSNLGRF", "soluble on expression in E. coli": "not soluble"}
{"sequence": "MGHHHHHHSHMRSTGSAPSCSGESARAHRRRAGAMSIRSSRTKHSTAQKGAHRRRVSLAGFFNLIYKRQDLGLDFLREMSEPLCTSRPVLLPLNLKNIAPGRCISLTPFGHTDNLGFQCETCTDPNLNKSIPPKLEDPAFSKNELCSVTLTFYQQAEQVIQHKQFYLSLLNLSMDAVRNSLTQPGLLYCYLVTKAFMLEGFPIFFEETNGMLGLYLVFRRDLLHLHESYLRLLIDNLGNYDISVDSVGRSYIIKLCPVGNVSRIPTIPADNVCLAVNNLDYGDDVKASWIECFNIVSRLSQQ", "soluble on expression in E. coli": "not soluble"}
{"sequence": "MGHHHHHHSHMSDWLEHSVQVEVAVPVARAWELWSDLEQMPRWMKWIDSVQVQKDDPELSRWKLASQGFEFSWLSRITRLVPQQLIQWESVDGLPNRGAIRFYDRQDHSIVRLSISYAIPGGLGPLMDKLFLGRIVEGTLKADLDRFRHYAESPR", "soluble on expression in E. coli": "not soluble"}
{"sequence": "MGHHHHHHSHMSTKVPIYLKRGSRKGKKEKLRDLLSSDMISPPLGDFRHTIHIGSGGGSDMFGDISFLQGKFHLLPGTMVEGPEEDGTFDLPFQFTRTATVVGRELPDGPSPLLKNAISLPVIGGPQALTLPTAQAPPKPPRLHLETPQPSPQEGGSVDIWRIPETGSPNSGLTPESGAEEPFLSNASSLLSLHVDLGPSILDDVLQIMDQDLDSMQIPT", "soluble on expression in E. coli": "not soluble"}
{"sequence": "MGHHHHHHSHMSTVAFHTLGCKVNHYETEAIWQLFKQGGYERTEYEKKADVYVINTCTVTNTGDKKSRQVIRRAVRQNPDAVICVTGCYAQTSPAEIMAIPGVDIVVGTQDREKMLGYIEEFRKERQPINAVRNIMKTRVYEELDVPYFTDRTRASLKIQEGCNNFCTFCIIPWARGLMRSRDGKEVIKQAQQLVDAGYKEIVLTGIHTGGYGEDIKDYNLAGLLRDMEAEVGGLKRLRISSIEASQISDEVIEVLDKSEVVVRHLHIPLQSGSNTVLKRMRRKYTMEFFQERLDRLKEALPGLAITSDVIVGFPGETEEEFMETYNFIKENRFSELHVFPYSKRTGTPAARMEDQVPEDVKNDRVHRLIELSNQLAKEYASAFEGEVLEIIPEEQFKDGDREGLYVGYTDNYLKIVFEGSEELIGKLVKVKITKAGYPYNEAQFVRVLEDDVKKESASA", "soluble on expression in E. coli": "soluble"}
{"sequence": "MGHHHHHHSHMTAPFFPRILGAVAFLNQETEPLTMNLQHHFLIAMPALQDPIFRRSVVYICEHNTNGAMGIIVNKPLENLKIEGILEKLKITPEPRDESIRLDKPVMLGGPLAEDRGFILHTPPSNFASSIRISDNTVMTTSRDVLETLGTDKQPSDVLVALGYASWEKGQLEQEILDNAWLTAPADLNILFKTPIADRWREAAKLIGVDILTMPGVAGHA", "soluble on expression in E. coli": "soluble"}
{"sequence": "MGHHHHHHSHMTDCEFGYIYRLAQDYLQCVLQIPQPGSGPSKTSRVLQNVAFSVQKEVEKNLKSCLDNVNVVSVDTARTLFNQVMEKEFEDGIINWGRIVTIFAFEGILIKKLLRQQIAPDVDTYKEISYFVAEFIMNNTGEWIRQNGGWENGFVKKFEPKSGWMTFLEVTGKICEMLSLLKQYC", "soluble on expression in E. coli": "not soluble"}
{"sequence": "MGHHHHHHSHMTDIKILDACCGSRLFWFDKNEPHTTFMDVRQEKFEMHGKKINVNPDVIGDFRDMPFESNSFNLVVFDPPHLKYVGQNSIMKAQYGQLDKENWKEDISKGFEECMRVLKVGGTLVFKWSDCQVNVREVLSAIPFKPLFGQQRGTTHWMTFVKFELTGNGG", "soluble on expression in E. coli": "not soluble"}
{"sequence": "MGHHHHHHSHMTSETPDYLLKYAAISSSEQRQSYKNDFNAEYSEYRDLHARIERITRRFTQLDAQLRQLSQGSEEYETTRGQILQEYRKIKKTNTNYSQEKHRCEYLHSKLAHIKRLIAEYDQRQLQAWP", "soluble on expression in E. coli": "soluble"}
{"sequence": "MGHHHHHHSHMTSLMDLTLLLARSQPELIEAHTCERIMCCVAQQASEKIDRFRAHAASVFLTLLHFDSPPIPHVPHRGELEKLFPRSDVASVNWSAPSQAFPRITQLLGLPTYRYHVLLGLVVSLGGLTESTIRHSTQSLFEYMKGIQSDPQALGSFSGTLLQIFEDNLLNERVSVPLLKTLDHVLTHGCFDIFTTEEDHPFSVKLLALCKKEIKNSKDIQKLLSGIAVFCEMVQFPGDVRRQALLQLCLLLCHRFPLIRKTTASQVYETLLTYSDVVGADVLDEVVTVLSDTAWDAELAVVREQRNRLCDLLGVPRPQLVPQPGAC", "soluble on expression in E. coli": "not soluble"}
{"sequence": "MGHHHHHHSHMVGLDIDSRLIHSARQNIRHYLSEELRLPPQTLEGDPGAEGEEGTTTVRKRSCFPASLTASRGPIAAPQVPLDGADTSVFPNNVVFVTGNYVLDRDDLVEAQTPEYDVVLCLSLTKWVHLNWGDEGLKRMFRRIYRHLRPGGILVLEPQPWSSYGKRKTLTETIYKNYYRIQLKPEQFSSYLTSPDVGFSSYELVATPHNTSKGFQRPVYLFHKARSPSH", "soluble on expression in E. coli": "not soluble"}
{"sequence": "MGHHHHHHSHMVGTQPRFLVKIHQKFYWAIRDDLIIHGGYKRSGLTSSFALVAMGPLGRPWAASFGFFFLAVVSLATPTPGEDDDIPVKIHRLTFVKGLVPDVTGGSSYYVCVYPSRKLFCTPTRWKDLSRFLNSETLNQVCSARTIYSVVPVEMLRIISLPLPPEIKSIVGGSIRSQYVSFPTFISLHPAKLPIWKSFANLKVSMKFRSSQWEVAFSVVSKTDYAITYWAEIPGFLIHESATINLINQPLLALYADLHVDMVMRLTDKFIYCQTYTLQQKNLTDPRTGKRPTSSVLIPSPHVKNCQIRRRNETHFVDTCSSAWDNYTSEAHNISRNSSSRGSNATQLVNITANPCTLPTLWDNWPCYTNYRSSPVPEIVIHENILLEGRAIYIIYHQIGLFDQPRLCVATFWMSKEETLLMQLDYPCEVSVEKKGKKFFIKSVVSMYHAISMVTFIWEYGIEIYDFLE", "soluble on expression in E. coli": "not soluble"}
{"sequence": "MGHHHHHHSHMVKMEPENKYLPELMAEKDSLDPSFTHAMQLLTAEIEKIQKGDSKKDDEENYLDLFSHKNMKLKERVLIPVKQYPKFNFVGKILGPQGNTIKRLQEETGAKISVLGKGSMRDKAKEEELRKGGDPKYAHLNMDLHVFIEVFGPPCEAYALMAHAMEEVKKFLVPDMMDDICQEQFLELSYLNG", "soluble on expression in E. coli": "soluble"}
{"sequence": "MGHHHHHHSHTGKTTVAVNLAVFNHIDLFDLDVEEPNDRIFIKGEAEEWPAYRKVPEVRENCNACGVCKDVCQYSAIYVIDKAYPLPELCHSCGACIYLCPEKAMEEVDYQTGKIVRVKSDITLTYGEMRIGEASAVFLIKQVKELMGKNAIIDSPPGASCPMVESVSDADYVILVAEPTPFGLHDLKIAAEVVSDLGLKFGVVVNKHGLPFDGIERYCKEGGVEILGKIPFSKEIAEKYSRGELLHDMKDFFVQLYEG", "soluble on expression in E. coli": "not soluble"}
{"sequence": "MGHHHHHHSHTRDELRAKALHIPFPVEKIINLPVVDFNEMMSKEQFNEAQLALIRDIRRRGKNKVAAQNCRKRKLENIVELEQDLDHLKDEKEKLLKEKGENDKSLHLLKKQLSTLYLEVFSMLRDEDGKPYSPSEYSLQQTRDGNVFLVPKSKK", "soluble on expression in E. coli": "soluble"}
{"sequence": "MGHHHHHHSHVFDRPDLGDQAILVSLDFGDADYQESVAECAELVRGSKVEILGMVQGKRQRPDAALFAGKGKVEEIASMVRATGANVVIFNHALSPGQERNLERALQCRVIDRNSLILDIFAQRARSHEGKLQVELAQLSHLSTRLVRGWTHLERQKGGVGLRGPGETQLETDRRLLGIRVKALKDRLAQVQKQRNTQRRSRNRAGVSSVSIVGYTNAGKSTLFNALTKANIYAADQLFATLDTTSRKLFLNHDCSVVLSDTVGFIRDLPHTLVAAFRATLEETVQANLLLHVVDCANETRDAQIDEVNKVLAEIDADGIPQLIVWNKGDLRELPPEIERDEDGVAVAVRVSALKGEGLELLREAIAERVQPFANNHKEPYEHVAE", "soluble on expression in E. coli": "soluble"}
{"sequence": "MGHRSRSNSRSQSRSRENSRGRSRSASKSPVYHRRERESSRSRSPRARYGGGGGGGGGGGRGRNQQYDRENPQPSKCLGVFNLSSYTTEKDLRDVFGEFGEINKCDLVYDRPSGNSRGFGFIYFNLIEDATAARDKLCNTDLDGHKIRVDFSLTKRGHSPTPGQYMGDRRGGGSSGGGRFGGGGGDRFNDRGSRGGDRYGGDRRGGGGGGGGDRYGGGGGDRYGGDRYGGGGGRRGSPDRRGGFRSGGGGGGYMRSGGGGGGPDRRDHRDNDRNGGGGGHRPYDPSFRRRVESYGSGNSGGGGGRRDRY", "soluble on expression in E. coli": "not soluble"}
{"sequence": "MGIKQYSQEELKEMALVEIAHELFEEHKKPVPFQELLNEIASLLGVKKEELGDRIAQFYTDLNIDGRFLALSDQTWGLRSWYPYDQLDEETQPTVKAKKKKAKKAVEEDLDLDEFEEIDEDDLDLDEVEEELDLEADDFDEEDLDEDDDDLEIEEDIIDEDDEDYDDEEEEIK", "soluble on expression in E. coli": "not soluble"}
{"sequence": "MGILSDKDIAYLKDLFGKELKRKVKIVFFKTEDKTRCQYCEITEQVLEELVSVDPKLELEIHDFDSDKEAVEKYQVEMVPATILLPEDGKDYGIRFYGVPSGHEFGTLIQDIITVSEGKPQLSEESIQKLQSLEEPIRISVFVTPTCPYCPRAVLMAHNMAMASDKIIGEMIEANEYWELSEKFGVSSVPHIVVNRDPSKFFVGAYPEKEFINEVLRLAKG", "soluble on expression in E. coli": "soluble"}
{"sequence": "MGIRLKDLSKLGYRDNVARSLVVDIVGKYCKHDTKEQIAMTLSNILEHPESYKNNEIWSKLAERLSPTVLAKEFVAYDLREDPLMYKTYGGKFIETLAKQQMNLAMRLPVTVGGALMPDAHAGYGLPIGGVLATDNAVIPYAVGVDIGCRMSLTVFDAKADFLKRYSYQIKEALKDFTHFGMDGGLGFEQEHEVLDREEFRLTPLLKDLQGKAVRQLGSSGGGNHFVEFGEIALQADNVLNLPEGSYVALLSHSGSRGLGAAIAKHYSLLAREVCKLPREAQHFAWLSLDSEEGQEYWMSMNLAGDYARACHERIHLNLSKALGLKPVANVNNHHNFAWKEEIAPGRMAIVHRKGATPAQKGQAGLIPGSMATAGYLVCGKGVEESLCSASHGAGRAMSRQKAKESFTQSALKKMLSQADVTLIGGSIEEIPLAYKDIDRVMYTQETLVEVQGRFMPRIVRMNKE", "soluble on expression in E. coli": "not soluble"}
{"sequence": "MGKEITENIIDVEFKCNHFKMNGYIGNNNIYRSNKNLQHIYINKRFVKSKIIIDAITESYKSIIPIGKHAVCFLNIEVDPSCIDVNIHPNKLEIKFEKEQEVYIELRDFLKVKLIHSNLIGLEHHHHHH", "soluble on expression in E. coli": "not soluble"}
{"sequence": "MGKIKIGINGFGRIGRLVARVALQSEDVELVAVNDPFITTDYMTYMFKYDTVHGQWKHSDIKIKDSKTLLLGEKPVTVFGIRNPDEIPWAEAGAEYVVESTGVFTDKEKAAAHLKGGAKKVVISAPSKDAPMFVCGVNEDKYTSDIDIVSNASCTTNCLAPLAKVIHDNFGIIEGLMTTVHAITATQKTVDGPSSKDWRGGRAASFNIIPSSTGAAKAVGKVLPDLNGKLTGMSFRVPTVDVSVVDLTVRIEKAASYDAIKSAIKSASEGKLKGIIGYVEEDLVSTDFVGDSRSSIFDAKAGIALNDNFVKLVAWYDNEWGYSNRVIDLIRHMAKTQ", "soluble on expression in E. coli": "soluble"}
